From US20260167706A1, “ANTI-ADRENOMEDULLIN (ADM) ANTIBODY OR ANTI-ADM ANTIBODY FRAGMENT OR ANTI-ADM NON-IG SCAFFOLD FOR USE IN THERAPY OR PREVENTION OF SHOCK” (ADRENOMED AG, priority 2022, published 2026)

Legend:
[1] = biological target: human recombinant adrenomedullin receptor (CRLR + RAMP3) (human)
[2] = biological target: human recombinant adrenomedullin receptor (CRLR + RAMP3) (human); remark: listed apart in the source

## human ADM 22-52 (from UniProt P35318) (peptide)
[1]
  IC50 (read off the curve); cAMP, % inhibition, 5.63 nM hADM as agonist: 200 nM
[2]
  IC50 (read off the curve); cAMP, % inhibition, 0.67 nM mADM as agonist: 2000 nM
